{"source": "paper PMC9854251", "substrate": "Nc1ncnc2c1ncn2[C@@H]1O[C@H](COP(=O)(O)NCCc2c[nH]c3ccccc23)[C@@H](O)[C@H]1O", "assay": "Steady-state kinetics assay", "type": "biochemical, human", "conditions": "other: steady-state 25 °C, pH 7.2"}
{"protein": "hHINT2 WT (Homo sapiens) (protein) GNEVAKAQQATPGGAAPTIFSRILDKSLPADILYEDQQCLVFRDVAPQAPVHFLVIPKKPIPRISQAEEEDQQLLGHLLLVAKQTAKAEGLGDGYRLVINDGKLGAQSVYHLHIHVLGGRQLQWPPG", "values": [{"measurement": "Km", "setting": "hHINT2 WT", "result": "0.91 ± 0.098", "unit": "µM"}, {"measurement": "kcat", "setting": "hHINT2 WT", "result": "5.77 ± 0.34", "unit": "s⁻¹"}, {"measurement": "kcat/Km", "setting": "hHINT2 WT", "result": "6.3e+06 ± 1e+06", "unit": "M⁻¹ s⁻¹"}]}
{"protein": "hHINT2 R99A (Homo sapiens; R99A) (protein) GNEVAKAQQATPGGAAPTIFSRILDKSLPADILYEDQQCLVFRDVAPQAPVHFLVIPKKPIPAISQAEEEDQQLLGHLLLVAKQTAKAEGLGDGYRLVINDGKLGAQSVYHLHIHVLGGRQLQWPPG", "values": [{"measurement": "Km", "setting": "hHINT2 R99A", "result": "0.683 ± 0.042", "unit": "µM"}, {"measurement": "kcat", "setting": "hHINT2 R99A", "result": "2.65 ± 0.19", "unit": "s⁻¹"}, {"measurement": "kcat/Km", "setting": "hHINT2 R99A", "result": "3.88e+06 ± 810000", "unit": "M⁻¹ s⁻¹"}]}
{"protein": "hHINT2 R99Q (Homo sapiens; R99Q) (protein) GNEVAKAQQATPGGAAPTIFSRILDKSLPADILYEDQQCLVFRDVAPQAPVHFLVIPKKPIPQISQAEEEDQQLLGHLLLVAKQTAKAEGLGDGYRLVINDGKLGAQSVYHLHIHVLGGRQLQWPPG", "values": [{"measurement": "Km", "setting": "hHINT2 R99Q", "result": "0.84 ± 0.155", "unit": "µM"}, {"measurement": "kcat", "setting": "hHINT2 R99Q", "result": "6.01 ± 0.26", "unit": "s⁻¹"}, {"measurement": "kcat/Km", "setting": "hHINT2 R99Q", "result": "7.2e+06 ± 1.1e+06", "unit": "M⁻¹ s⁻¹"}]}
{"protein": "hHINT1 Q62A (Homo sapiens; Q62A) (protein) MADEIAKAQVARPGGDTIFGKIIRKEIPAKIIFEDDRCLAFHDISPQAPTHFLVIPKKHISAISVAEDDDESLLGHLMIVGKKCAADLGLNKGYRMVVNEGSDGGQSVYHVHLHVLGGRQMHWPPG", "values": [{"measurement": "Km", "setting": "hHINT1 Q62A", "result": "0.015 ± 0.003", "unit": "µM"}, {"measurement": "kcat", "setting": "hHINT1 Q62A", "result": "0.45 ± 0.02", "unit": "s⁻¹"}, {"measurement": "kcat/Km", "setting": "hHINT1 Q62A", "result": "2.8e+07 ± 4e+06", "unit": "M⁻¹ s⁻¹"}]}
{"protein": "hHINT1 Q62R (Homo sapiens; Q62R) (protein) MADEIAKAQVARPGGDTIFGKIIRKEIPAKIIFEDDRCLAFHDISPQAPTHFLVIPKKHISRISVAEDDDESLLGHLMIVGKKCAADLGLNKGYRMVVNEGSDGGQSVYHVHLHVLGGRQMHWPPG", "values": [{"measurement": "Km", "setting": "hHINT1 Q62R", "result": "0.136 ± 0.03", "unit": "µM"}, {"measurement": "kcat", "setting": "hHINT1 Q62R", "result": "1.4 ± 0.09", "unit": "s⁻¹"}, {"measurement": "kcat/Km", "setting": "hHINT1 Q62R", "result": "1.1e+07 ± 2.4e+06", "unit": "M⁻¹ s⁻¹"}]}
